Values joined by “and” are separate entries in the source; they are usually repeats but may differ in a detail not shown here. Identical values can stand only once.
Conditions: Pseudomonas putida, 25 °C, GdnHCl, phosphate 50 mM, reversible: yes, whole UniProt chain shown

B1: 2-hydroxymuconate tautomerase wild type, Q01468 (protein)
chain: MPIAQIHILEGRSDEQKETLIREVSEAISRSLDAPLTSVRVIITEMAKGHFGIGGELASKVRR
denaturant midpoint (higher = more stable) (pH 6, CD): 1.9 M and 2.1 M and 2.3 M | denaturant midpoint (higher = more stable) (pH 6, activity): 1.4 M and 1.7 M | denaturant midpoint (higher = more stable) (pH 7.4, CD): 2.4 M and 2.7 M and 2.9 M | denaturant midpoint (higher = more stable) (pH 7.4, activity): 2.2 M and 2.5 M and 2.9 M | denaturant midpoint (higher = more stable) (pH 8.5, CD): 2.5 M and 2.8 M and 3 M | denaturant midpoint (higher = more stable) (pH 8.5, activity): 2.5 M and 2.7 M and 2.9 M

From FireProtDB (doi:10.1021/bi002752b)
